Experimental data: publication PMC8613188, “Structural insights into bifunctional thaumarchaeal crotonyl-CoA hydratase and 3-hydroxypropionyl-CoA dehydratase from Nitrosopumilus maritimus” (Scientific Reports, 2021)

Molecular target: the molecule itself
Experiment: crystal structure; apo form, 2.15 Å, space group P32, 6 monomers in the asymmetric unit; crystals from 0.2 M MgCl2, 0.1 M sodium citrate tribasic dihydrate pH 5, 10% w/v PEG, BME added; data at 100 K

B1: Nmar_1308 protein, bifunctional crotonyl-CoA hydratase (CCAH) and 3-hydroxypropionyl-CoA dehydratase (3HPD) from Nitrosopumilus maritimus SCM1 (enzyme)
chain: MSLVTTSTSDGICTVKINRPDKLNAMNTDVAKELIKTFEELNHNDDVKVIILTGEGEKAFSAGADIEYMSKISADESVEYAKTGQLVTATVELVKQPTIAAVNGFALGGGCELAMSCDIRIAADTAKLGQPEVTIGVPPGWGGTQRLMRIVGIAKAKELVYTGKMIKAEEAKEIGLVNHVVPLASLQEEALKMAQQIAGNSTMGVQMSKVAINKGRNADLDTGLGLEILAWRNCFTHPDRQERMTAFVNKSKK
notes: Protein encoded by Nmar_1308 of Nitrosopumilus maritimus SCM1; codon-optimized gene construct from Genscript in pET28a (NdeI/BamHI); 229-237 residues modeled per chain in PDB 7EUM; Homohexamer (dimer of trimers) in the crystal; source: E. coli BL21(Rosetta-2), purified (Ni-NTA, thrombin cleavage, reverse Ni-NTA, Superdex 200); not shown: His6, N-terminal, cleaved
  stoichiometry N: 6
